The results in this text go back to publication PMC3099244.

The target in the experiment is TAP-tagged wild-type Dyn1-GFP (cytoplasmic dynein heavy chain) (S. cerevisiae) (UniProt P36022). In words: single-molecule stepwise photobleaching.

Regarding “TAP-tagged wild-type Dyn1-GFP (cytoplasmic dynein heavy chain), P36022 1-4092”, the stoichiometry N (usually the number of molecules, sites or subunits per partner or assembly) was 2.
